Assay results taken from US12624096B2, “Anti-tau antibodies and methods of use thereof” (GTInvent Limited, priority 2020, dated 2026).

B1: 3aG3: anti-tau clone, SEQ ID NO: 424 (protein)
scFv: QVQLQESGPSLVKPSQTLSLTCTVSGFSLSSNGVGWVRQAPGKVPEWVGDISSSGKAYANPALKSRLSITRDTAKTQVFLSLSSVTTEDTAVYYCVRCRDGGVSYGYDIDYWGPGLLVTVSSEGKSSGASGESKVDDQAVLTQPPSVSGSPGQRVSITCSGSSSNIGGGNYLSWFQQVPGSAPKLLIYGATSRASGVPDRFSGSRSGNTATLTISSLQAEDEADYYCASFDTSSGGIFGAGTRLTVLG
modifications: 3aG3 amino acid sequence
B2: 3bF4: anti-tau clone, SEQ ID NO: 421 (protein)
scFv: QVQLQESGPSLVKPSQTLSLTCTVSGFSLSSNGVGWVRQAPGKVPEWLGDISSVGKKYANPALKSRLSFTRDTSKSQVSLSLSSVTTEDTAVYYCVKCRDGGVTYGYDIDYWGPGLLVTVSSEGKSSGASGESKVDDQAVLTQPSSVSKSTGQTVSITCSGSSSNVGLRNYVTWFQQVPGSAPKLLIYGATSRASGIPDRFSGSRSGNTATLIISSLQAEDEADYYCASADTNDGGVFGSGTRLTVLG
modifications: 3bF4 amino acid sequence
B3: 3aH6: anti-tau clone, SEQ ID NO: 423 (protein)
scFv: QVQLQESGPSLVKPSQTLSLTCTVSGFSLSSNGVGWVRQAPGKVPEWLGDISSVGKKYANPALKSRLSFTRDTSKSQVSLSLSSVTTEDTAVYYCVKCRDGGVTYGYDIDYWGPGLLVTASSEGKSSGASGESKVDDQAVVTQPSSVSGSLGQSVSITCSGSSGNVGYGDYVSWFQQFHGSAPKLLIYGATNLASGVPARFSGSRSGNTATLTISSLHAEDEADYYCASYDSSSGGVFGSGTRLTVLG
modifications: 3aH6 amino acid sequence
B4: 3bG4: anti-tau clone, SEQ ID NO: 425 (protein)
scFv: QVQLQESGPSLVKPSQTLSLTCTISGFSLISNGVGWVRQAPGKVPEWVGDIASSGKAYSNPALKSRLSITRDTSKSQVSLSLRSVTTEDTAVYYCVRCRDGGVTYGYDIDYWGPGLLVTVSSEGKSSGASGESKVDDQAVLTQPSSVSKSLGQSVSITCSGSTSNVGSGNDVSWFQQVPGSAPKLLFYGATNRASGVPDRFSGSRSGNTATLTITSLQAEDEADYYCGSYDSNSGGIFGSGTRLTVLG
modifications: 3bG4 amino acid sequence
B5: 3aB7: anti-tau clone, SEQ ID NO: 420 (protein)
scFv: QVQLQESGPSLVKPSQTLSLTCTVSGFSLTSNGVGWVRQAPGKVPEWVGDKSSAGKTYGNPALKSRLSITRDTSKSQVSLSLSSVTTEDTAVYYCVRCRDGGVTYGYDVDYWGPGLLVTVSSEGKSSGASGESKVDDQAVLTQPSSVSKSLGQSVSITCSGSSSNVGYGDVVSWFQQFPGSAPKLLIFGTTTRASGVPDRFSGSRSGNAATLTINSLQAEDEADYYCASFDSDSGGIAGSGTRLTVLG
modifications: 3aB7 amino acid sequence
B6: 3aA6: anti-tau clone, sequence in b345 (protein)
scFv: QVRLQESGSSLVKPSQTLSLVCTVSGFPLTSNAVGWVRQAPGKAPEWLGLIDIDGDTAYNPALESRLSITRDTSKSQVSLSLSSVAIEDTAVYYCARHYDKWGYADSIDYWGPGLLVTVSSEGKSSGASGESKVDDQALLTQPSSVFGSLGQRVSITCSGSSSNVGYGDYVGWYQQVPGSAPKLLIYDATTRASGVPDRFSGSRSGNTATLTISSLQAEDEADYYCASYQNERSGVFGSGTRLTVLG
modifications: 3aA6 amino acid sequence
B7: CE3: anti-tau clone, SEQ ID NO: 367 (protein)
scFv: QVRLQESGPSLVKPSQTLSVTCTVSGFSLISNAVGWVRQAPGKVPESLAGCSSDGKCYYNSALKSRLDITRDTSKNQISLSLSSVTTDDAAVYYCTRGYYPVYGYDYLGTIDYWGPGLLVTVSSEGKSSGASGESKVDDQAVLTQPSSVSGSLGQRVSITCSGSSSNVGRNDVAWFQQLPGSGLRTIIYGTTSRPSGIPDRFSGSKSGVTATLTIDSLQAEDEADYFCASGDSSAINDIFGSGTRLTVLG
modifications: CE3 amino acid sequence
B8: MD9/MoD9: anti-tau clone, SEQ ID NO: 373 (protein)
scFv: QVRLQESGPSLVKSSQTLSLTCTVSGFSLTRESIAWVRQAPGKVPEWLGGVGIDGTSYYSPALKSRLSITRDTSKSQASLSLSSVATEDTAMYYCARNYIDFEYWGPGLLVTVSSEGKSSGASGESKVDDQAVLTQLSSVSGSLGQRISITCSGSSSNVGIYDVSWFQQLPGSGLRTVIYGTNNRPSGVPDRFSGSRSGNTATLTISSLQSEDEAIYYCAAGDSSTIAVFGSGTRLTVLG
modifications: MD9 amino acid sequence
B9: 3bD11 (protein)
scFv: RVRLQGSGPSLVKPSQTLSLTCTVSGFSFDSYYVGWVRQAPGKALEWLGNIYSTGRAFYNPALKSRLSITRDTSKSQVSLSVSSVTIEDTALYYCVRGSYYHGGGNGMVDFFDYWSPGLLVTVSSEGKSSGASGESKVDDQVVRTQPSSVSGSLGQRVSITCSGSSSNVGYGNYVGWFQQVPGSAPKLLIYAATSRASGVPDRFSGSRSGNTATLTIDSLQAEDEADYYCSSYQRGNTGVFGSGTRLTVLG

target: hT40 (Homo sapiens, UniProt P10636); assay: Biacore X100 SPR, scAb captured via anti-HuCk, hT40 as analyte; assay type: binding; conditions: '3a' and '3b' scAbs, Table 25, hT40
Sequence (P10636 1-441 isoform P10636-8): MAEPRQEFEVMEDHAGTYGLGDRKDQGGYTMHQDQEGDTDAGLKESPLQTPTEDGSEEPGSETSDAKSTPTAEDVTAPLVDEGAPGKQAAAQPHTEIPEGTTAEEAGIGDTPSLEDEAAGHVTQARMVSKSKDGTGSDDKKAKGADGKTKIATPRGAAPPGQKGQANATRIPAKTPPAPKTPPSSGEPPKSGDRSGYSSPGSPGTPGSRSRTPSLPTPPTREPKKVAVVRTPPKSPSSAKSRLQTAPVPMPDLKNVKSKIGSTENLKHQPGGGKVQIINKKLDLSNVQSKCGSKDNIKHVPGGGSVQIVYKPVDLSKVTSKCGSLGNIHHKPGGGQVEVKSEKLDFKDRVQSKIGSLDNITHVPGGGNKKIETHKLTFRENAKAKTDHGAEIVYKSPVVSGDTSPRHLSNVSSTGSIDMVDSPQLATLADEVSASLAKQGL
Description: Surface plasmon resonance (SPR) is widely regarded as the gold standard for real time measurement of protein-protein interactions such as antibody binding. All SPR experiments were carried out using a Biacore X100 machine and HBS EP+ running buffer (GE Healthcare). A ‘capture’ method was followed for affinity measurements, where an anti-human constant kappa chain (HuCk) antibody was conjugated to the surface of a CM5 sensor chip using an amine coupling kit and scAb molecules were immobilised via their HuCk domain. Amine coupling is a very common approach for immobilising the ligand to the chip surface. […] The capture antibody was diluted 1/100 in 10 mM Sodium acetate buffer pH 5.0 and passed over the activated chip surface for a period of at least 420 s. Final ligand immobilisation levels over 12,000 RU were deemed to be satisfactory.
Following immobilisation, the level of each scAb to be captured was identified using the standard SPR equation with a theoretical RMax of 100 RU. Analyte MW refers to the molecular weight of hT40 or dGA/dGAE molecules, while ligand MW refers to the molecular weight of the scAbs tested. RL is the desired capture level and S refers to the stoichiometric ratio:
The scAb to be tested was added only to flow cell 2 so that flow cell 1 could act as a control to subtract any interaction with the analyte and the chip surface. Both single and multi-cycle runs were utilised using wizards developed in the Biacore X100 control software which are both accepted methods of kinetic analysis (Karlsson, R., et al. Analyzing a kinetic titration series using affinity biosensors (2006) Analytical Biochemistry 349:136-47). The multi-cycle protocol was as follows-Three start-up cycles composed of an initial capture, to the desired level, of the scAb to be tested was performed followed by a 30 s injection of glycine buffer pH 2.0 after each cycle to regenerate the chip surface. […] Following three start-up cycles increasing concentrations (0.15625 nM-100 nM) of the target to be tested were added to the chip surface after the desired scAb capture. The target was added for a 120 s association period and 420 s dissociation period followed by another regeneration, 30 s injection of glycine buffer pH 2.0 in between each cycle.
The single cycle kinetics protocol was similar and utilised the same level of scAb capture. Three start-up cycles were used followed by 5 increasing concentrations of the analyte (6.25 nM-100 nM) for an association period of 120 s followed by a dissociation period of 420 s for each concentration. In single cycle kinetics the regeneration step was performed only after the final analyte concentration was added. Binding responses were analysed in Biacore X100 evaluation software and data fitted to a 1:1 binding model to obtain kinetic and affinity characterisation.

Row | Molecule | ka [M⁻¹ s⁻¹] | kd [s⁻¹]
1 | B1 | 62940 | 0.0003869
2 | B2 | 109300 | 0.01532
3 | B3 | 2.757e+06 | 0.009868
4 | B4 | 6.669e+06 | 0.05966
5 | B5 | 207200 | 0.01435
6 | B6 | 19000 | 0.0188

same assay, conditions: scAb, Table 23, T441 (hT40)

Row | Molecule | ka [M⁻¹ s⁻¹] | kd [s⁻¹]
7 | B7 | 174500 | 0.000662

target: htau40 (Homo sapiens, UniProt P10636); assay: Biacore X100 SPR of anti-tau mAbs on immobilised htau40; assay type: binding; conditions: mAb, Table 27, immobilised hT40
Sequence (P10636 1-441 isoform P10636-8): as above
Description: For anti-tau mAb SPR measurements, htau40 was conjugated to the surface of a CM5 sensor chip using amine coupling as explained previously. Briefly, 2 μg/mL htau40 in 10 mM Sodium acetate buffer (pH 4.0) was passed over the activated chip surface (EDC/NHS) in flow cell 2 for a period for 45 s followed by blocking with 1 M ethanolamine-HCl PH 8.5. Flow cell 1 was set up as reference control and blocked simultaneously. Final immobilisation level of htau40 (Rmax) was approximately 250 RU. Following a minimum of three start-up cycles, increasing concentrations (0.78 nM-25 nM) of the mAb in HBS-EP+ buffer was added at a rate of 30 μL/min to the chip. The mAb was added for a 120 s association period and 600 s dissociation period followed by a regeneration cycle of 30 s injection of glycine buffer pH 1.5 in between each cycle. Binding responses were analysed in Biacore X100 evaluation software and data fitted to a 1:1 binding model to obtain kinetic and affinity characterisation.
For anti-tau mAb SPR measurements (Biacore X100™) and epitope mapping, the same methodologies described above (see Example 16) were followed. Kinetic rates and equilibrium binding constants of additional anti-tau mAbs and the regions recognised on hT40 are given in the Table 25 below

Row | Molecule | ka [M⁻¹ s⁻¹] | kd [s⁻¹]
8 | B7 | 103000 | 0.001718

same assay, conditions: newly converted mAbs, Table 25 (Example 28), hT40

Row | Molecule | ka [M⁻¹ s⁻¹] | kd [s⁻¹]
9 | B1 | 1.532e+07 | 0.004751
10 | B8 | 66200 | 0.001462
11 | B3 | 3.128e+06 | 0.0001522
12 | B4 | 4.54e+06 | 0.0002964
13 | B9 | 2.671e+06 | 0.003979

same assay, conditions: newly converted mAbs, Table 25 (Example 28); read-out: kD (M) for hT40 binding

Row | Molecule | Kd [M]
14 | B3 | 4.9e-11
